Several values for one entry are separate records, joined by “and”; a condition that tells them apart may be missing. Equal values may be shown once.
Key:
[1] = biological target: C-terminal multimerization domain of AbrB (AbrBC), residues 54-94 (B. subtilis); test: SEC
[2] = biological target: T1, N-terminal DNA-binding domain of AbrB (AbrBN), residues 1-53 (B. subtilis); test: SEC
T1 sequence (P08874 whole entry, looked up): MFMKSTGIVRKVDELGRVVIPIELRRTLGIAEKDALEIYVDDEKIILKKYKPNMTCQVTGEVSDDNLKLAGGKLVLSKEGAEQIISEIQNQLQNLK

[3] = biological target: T1, N-terminal DNA-binding domain of AbrB (AbrBN), residues 1-53 (B. subtilis); test: AUC
[4] = biological target: T2, Full-length AbrB from B. subtilis (B. subtilis, UniProt P08874 1-96); test: ITC
T2 sequence (looked up): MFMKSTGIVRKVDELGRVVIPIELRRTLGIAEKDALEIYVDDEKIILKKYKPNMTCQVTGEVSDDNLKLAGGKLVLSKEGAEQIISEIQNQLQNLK

SEC = biological target: the molecule itself; test: SEC

In the case of “C-terminal multimerization domain of AbrB (AbrBC), residues 54-94 (domain or fragment)”, the stoichiometry N [1] is reported as 2.

In the case of “N-terminal DNA-binding domain of AbrB (AbrBN), residues 1-53 (domain or fragment)”, the stoichiometry N [2] is reported as 2 and the stoichiometry N [3] is reported as 2.

B1: AbbA (anti-repressor protein AbbA from B. subtilis), histidine tag removed (natural protein, UniProt O31697 1-65, looked up)
chain: MRMSLIGERFTEEEQKLLLNILINHEYAIELLSSEINDIETGTKNVDGTTYKKLVTLYDRFRFEN
B1 was tested, and the Kd [4] was 16 nM and 11 to 21 nM, the “stoichiometry N” value [4] was 0.868 to 0.969 (2×) and 0.918 and the stoichiometry N (AbbA chains per AbrBN chain (2:2)) [3] was 1. The “stoichiometry N” value (SEC) was 2.

From article PMC4017629 (Journal of molecular biology, 2014)
